Key:
[1] = Thermostability assay (residual OTA hydrolyzing activity after 10 min heat incubation); format: physicochemical; details: 10 min incubation at 45, 55, 65, 75 or 85 ° C.; 0.1 mg/mL in 20 mM Tris-HCl pH 7.5; relative to 4° C. reference aliquot
Protocol: To determine the kinetic stability of the produced enzymes towards temperature, thermostability assays were performed. To this end, purified protein samples were diluted to a protein concentration of 0.1 mg/mL in 20 mM Tris-HCl buffer pH 7.5 and aliquots were incubated in a thermocycler for 10 min at either 45, 55, 65, 75 or 85 ° C. After this incubation, the aliquots were stored at 4° C. until further analysis. A reference aliquot was stored at 4° C. throughout the incubation. Subsequently, all aliquots were assayed for residual OTA hydrolyzing activity using the assay described in Example 2. Residual enzyme activities were calculated relative to the reference aliquot. The temperature range in which 50% of the initial activity was lost after the incubation, in relation to the reference aliquot was determined.

[2] = OTA hydrolyzing activity assay (specific activity); format: biochemical; details: 37° C., 200 ng/mL OTA in 100 mM sodium phosphate buffer
Protocol: To determine the specific activity of recombinant target polypeptides produced e.g. as described in Example 1 above in units per liter (U/L), ochratoxin A (OTA) hydrolyzing activity assays were performed. One unit is defined as the amount of enzyme necessary for hydrolysis of 1 μmol or OTA in 1 min when using a starting OTA concentration of 0.495 μM.
OTA hydrolyzing activity assays were set up in a final volume of the reaction mixture of 200 μL, containing the recombinant enzyme preparation (preferably diluted to yield a volumetric activity of 1-10 mU/L), and 200 ng/mL OTA in 100 mM sodium phosphate buffer.
Specific activities were determined at pH 6.0 and pH 7.5. As soon as all components of the reaction mixture were mixed, OTA hydrolysis was followed at 37° C. on a fluorescence spectrophotometer (BioTek Synergy H1 MFD Multimode microplate reader) by following the reduction in fluorescence at ex/em 390 nm/450 nm.
For calculation of the specific activity, the initial linear part of the recorded fluorescence reduction curve was used. In addition to the fluorescence-based method described above, OTA hydrolysis was also determined by using the HPLC-MS method as described by Dellafiora et al. 2020, Toxins 12, 258, essentially confirming the fluorescence-based results. The specific activities for the polypeptides having amino acid sequences of SEQ ID NOs: 1-4 at different pH are shown in Table 1.

[3] = Piglet feeding trial, OTA in plasma and urine by HPLC-MS; format: in vivo, piglets; details: for OTA concentration, plasma samples, Day 14 / OTA concentration, urine samples, Day 14: piglets; for % OTA reduction, plasma samples / % OTA reduction, urine samples: day 14
Protocol: To verify the applicability of the produced enzymes as food or feed additive, piglet feeding trials were conducted. To this end, sufficient amounts of the polypeptide of SEQ ID NO: 1 were produced by cultivation of E. coli transformants in bioreactors. The cell broth was homogenized and centrifuged. The supernatant was concentrated, dried by lyophilization and formulated as a powder by grinding. The enzymatic activity of the thus obtained lyophilized powder was determined, and the powder was mixed with feed for the feeding trial as described in the following.
Five piglet groups were studied based on the following five experimental diet setups: 1) Base feed; 2) base feed+50 ppb OTA; 3) base feed+50 ppb OTA+169 mU of the enzyme of SEQ ID NO: 1 per kg of feed; 4) base feed+500 ppb OTA; 5) base feed+500 ppb OTA+169 mU of the enzyme of SEQ ID NO: 1 per kg of feed.
Each trial group consisted of four piglets weighing approximately 7-8 kg, who were coming out from weaning and adapted to solid diet before being fed the experimental diet as described above. The duration of the feeding trial (i.e. actual days of feeding the experimental diet) was fourteen days. Collectively each trial group consumed around 15 kg of feed. No piglets fell sick to any unexpected disease throughout the feeding trial. Urine and blood samples were collected on day 0, just before starting the experimental diet, and on day 14.
Extraction of OTA was performed from plasma and urine samples for subsequent analysis by HPLC-MS. 200 μL of sample was thoroughly mixed with 800 μL of extraction solution (containing 99% of ethyl acetate and 1% of phosphoric acid, 85%) followed by centrifugation at 19000×g for 5 min for phase separation. 50 μL of upper phase was diluted with 50 μL of acetonitrile, followed by HPLC-MS analysis. The H PLC-MS method as described by Dellafiora et al. 2020, Toxins 12, 258 was used to determine the changes in OTA concentration in the samples taken during the trial upon consumption of the experimental diets. The results are shown in Table 3 using the diet setup numbering as indicated above.

[4] = diet setup 3: base feed+50 ppb OTA+169 mU enzyme per kg of feed
[5] = diet setup 5: base feed+500 ppb OTA+169 mU enzyme per kg of feed

B1: SEQ ID NO: 4: OTA-hydrolyzing polypeptide 4 of the present invention, recombinantly produced in E. coli (protein)
chain: MARDPLPADVRLLIRNNMASAHPQVPTIDGLDSKTQNDVFTAIDAINNDMRDLSLAIHENPELGFKEVKAHANLVKALSKLGFTITNPTSLETAFVATWSNGSGGRTFGFNAEYDALPGIGHACGHNLIAIVAVASAVGCKAAMEKQGISGTIKVIGSPAEEGGGGKIILFNEGVYDGLDACAMAHPGGGMPADGYDGQAPAEGKPASLARAGFIVDFVGKPAHAGAAPWMGVNAVDAAVLGYNGVSMLRQQLEPTVRVHGVIRGPNDWVNNIIPASSHVEYDVRAPDVKQAMAVRNKAIACFESAAHATGCSHTTQSKDKDIYAELRNSIRMAGVYADIMEEVFDQHIQRDGMTTASTDFGNITISACPAVHPMYLIETDGVNHTPEFTAGAATMDSHERSIKVAKGLALLGFKVLTDDVFAKKIKDEFEEQKKRLGA
modifications: OTA hydrolyzing polypeptide 4
notes: OTA-hydrolyzing polypeptide 4 of the present invention, recombinantly produced in E. coli
Which results are given for B1?
Temperature range in which 50% of the initial activity was lost [1]: 45-55 °C; Specific OTA hydrolyzing activity ([2]; pH 6): 1.57 U/g; Specific OTA hydrolyzing activity ([2]; pH 7.5): 1.43 U/g

B2: SEQ ID NO: 2: OTA-hydrolyzing polypeptide 2 of the present invention, recombinantly produced in E. coli (protein)
chain: MARDEIPADVKALIAQTVTALHGLAPPSAEFDDETQDAVFEAIDAIDGAMWDLNKKIHDHPELGFKEHKARANLVAALCKLGFTVTNPSSLPTAFVATYTQGHGGRTFGVDAEYDALPEVGHACGHNLIAVAAVAAAAGLKAALKARNIAGTIKLIGSPAEEGGGGKVILLNEGVYDCLDACVMAHPEGGMIGNDYDGSAYVGGPASLARAGFEIEFHGRGAHAGAAPWLGINALDAAVQGYTAVSMLRQQLEPTMRVHGIIQGSEKWAQNIIPSYAKVSYSTRALDVKKTLELRDKTVDCFASAAKATGCTYELTAPETEVYAELRNNEPLADAYADLMTHAFGQKIERRGMTTASTDFGNVTYHVPAIHPGFTIESDTVNHTAGFTEAAGKKGAHERTMKVAKGLAMVGAKFLADDKFAKDVRKAFEKFKKGAQ
modifications: OTA hydrolyzing polypeptide 2
notes: OTA-hydrolyzing polypeptide 2 of the present invention, recombinantly produced in E. coli
For B2, which “Temperature range in which 50% of the initial activity was lost” value [1] is on record?
The value was 65-75 °C.

What about the “Specific OTA hydrolyzing activity” value ([2]; pH 6) of the same molecule?
The value was 3.53 U/g.

What about the “Specific OTA hydrolyzing activity” value ([2]; pH 7.5) of the same molecule?
The value was 11.01 U/g.

B3: SEQ ID NO: 3: OTA-hydrolyzing polypeptide 3 of the present invention, recombinantly produced in E. coli (protein)
chain: MARDEIPADVKALIAQTVTALHGLAPPSAEFDDETQDAVFEAIDAIDDAMWDLNKKIHDHPELGFEEHKARANLVAALCKLGFTVTNPSSLPTAFVATYTHGHGGRTFGVDAEYDALRDVGHACGHNLIAVAAVAAAAGLKAALKARNISGTVKLIGSPAEEGGGGKVILLNEGVYDCLDACVMAHPEGGMIGDDYDGSAYVGGPASLARAGFEIEFHGRGAHAGAAPWLGINALDAAVQGYTAVSMLRQQLEPTMRVHGIIQGSEKWAQNIIPSYAKVSYSTRALDVKKTLELRDKTVDCFASAAKATGCTYDVTAPETEVYAELRNNQPLADAYADLMTKAFGQKIERRGMTTASTDFGNVTYHLPAIHPGFTIESETVNHTKGFTEAAGKKDAHERTMKVAKGLAMVGAKFLADDKFAKDVRKAFEKFKREVE
modifications: OTA hydrolyzing polypeptide 3
notes: OTA-hydrolyzing polypeptide 3 of the present invention, recombinantly produced in E. coli
Which “Temperature range in which 50% of the initial activity was lost” value [1] does the source give for B3 here?
The value was 55-65 °C.

And the “Specific OTA hydrolyzing activity” value ([2]; pH 6)?
Its value is 0.63 U/g.

What about the “Specific OTA hydrolyzing activity” value ([2]; pH 7.5) of the same molecule?
Its value is 1.44 U/g.

B4: SEQ ID NO: 1: OTA-hydrolyzing polypeptide 1 of the present invention, recombinantly produced in E. coli (protein)
chain: MSDHLPADVRDLIRQTMSRLENLVPPSAAFDDETQDAVFEAIDSIDGDMLALNKAIHDNPELGFHEVKAHHHLVQALIKLGFAVTNPTSLPTAFVATWSHGSGGRTFGFNAEYDALPGVGHACGHNLIAIVAVASAAGLKAALKARNIPGTIKVIGSPAEEGGGGKVILLNEGAYDGIDACVMAHPEGGVPGIDDDGSAYTSGPATLARAGFSVELFGKAAHAGAAPWLGVNALDAAVQGYTAVSMLRQQIEPTMRVHGVFDYGKEKWVQNIIPAYAKVEYSTRALDVKSTLELRKKVISCFESAATATGCTHKVSAPETEVYAELRNNVTLADAYADFMTTAFGQKIGRVGITTASTDFGNVTYKMPAIHPGFHLISKGVNHTPEFADAAGTLDAHERAIKVAKGLAMLGAKFLQDDKFAKEVKRKFDEFKKEVGELKLTDNENEVQEVNGVMKQEHIAEQVDEIWL
modifications: OTA hydrolyzing polypeptide 1
notes: OTA-hydrolyzing polypeptide 1 of the present invention, recombinantly produced in E. coli
Which results are given for B4?
OTA concentration, plasma samples, Day 14 [3, 4]: 37 ± 3; OTA concentration, urine samples, Day 14 [3, 4]: 0.00; % OTA reduction, plasma samples [3, 4]: 9%; % OTA reduction, urine samples [3, 4]: 100.0%; OTA concentration, plasma samples, Day 14 [3, 5]: 350 ± 25; OTA concentration, urine samples, Day 14 [3, 5]: 25.18; % OTA reduction, plasma samples [3, 5]: 15%; % OTA reduction, urine samples [3, 5]: 48.4%; Temperature range in which 50% of the initial activity was lost [1]: 45-55 °C; Specific OTA hydrolyzing activity ([2]; pH 6): 0.11 U/g; Specific OTA hydrolyzing activity ([2]; pH 7.5): 1.20 U/g

Source: patent US20240067950A1, “MEANS AND METHODS FOR DETOXIFYING OCHRATOXIN A” (DSM Austria GmbH, priority 2020, published 2024)
